B1: DNA mismatch repair protein Mlh1 (Homo sapiens), P40692 (parent)
chain: MSFVAGVIRRLDETVVNRIAAGEVIQRPANAIKEMIENCLDAKSTSIQVIVKEGGLKLIQIQDNGTGIRKEDLDIVCERFTTSKLQSFEDLASISTYGFRGEALASISHVAHVTITTKTADGKCAYRASYSDGKLKAPPKPCAGNQGTQITVEDLFYNIATRRKALKNPSEEYGKILEVVGRYSVHNAGISFSVKKQGETVADVRTLPNASTVDNIRSIFGNAVSRELIEIGCEDKTLAFKMNGYISNANYSVKKCIFLLFINHRLVESTSLRKAIETVYAAYLPKNTHPFLYLSLEISPQNVDVNVHPTKHEVHFLHEESILERVQQHIESKLLGSNSSRMYFTQTLLPGLAGPSGEMVKSTTSLTSSSTSGSSDKVYAHQMVRTDSREQKLDAFLQPLSKPLSSQPQAIVTEDKTDISSGRARQQDEEMLELPAPAEVAAKNQSLEGDTTKGTSEMSEKRGPTSSNPRKRHREDSDVEMVEDDSRKEMTAACTPRRRIINLTSVLSLQEEINEQGHEVLREMLHNHSFVGCVNPQWALAQHQTKLYLLNTTKLSEELFYQILIYDFANFGVLRLSEPAPLFDLAMLALDSPESGWTEEDGPKEGLAEYIVEFLKKKAEMLADYFSLEIDEEGNLIGLPLLIDNYVPPLEGLPIFILRLATEVNWDEEKECFESLSKECAMFYSIRKQYISEESTLSGQQSEVPGSIPNSWKWTVEHIVYKALRSHILPPKHFTEDGNILQLANLPDLYKVFERC
partner: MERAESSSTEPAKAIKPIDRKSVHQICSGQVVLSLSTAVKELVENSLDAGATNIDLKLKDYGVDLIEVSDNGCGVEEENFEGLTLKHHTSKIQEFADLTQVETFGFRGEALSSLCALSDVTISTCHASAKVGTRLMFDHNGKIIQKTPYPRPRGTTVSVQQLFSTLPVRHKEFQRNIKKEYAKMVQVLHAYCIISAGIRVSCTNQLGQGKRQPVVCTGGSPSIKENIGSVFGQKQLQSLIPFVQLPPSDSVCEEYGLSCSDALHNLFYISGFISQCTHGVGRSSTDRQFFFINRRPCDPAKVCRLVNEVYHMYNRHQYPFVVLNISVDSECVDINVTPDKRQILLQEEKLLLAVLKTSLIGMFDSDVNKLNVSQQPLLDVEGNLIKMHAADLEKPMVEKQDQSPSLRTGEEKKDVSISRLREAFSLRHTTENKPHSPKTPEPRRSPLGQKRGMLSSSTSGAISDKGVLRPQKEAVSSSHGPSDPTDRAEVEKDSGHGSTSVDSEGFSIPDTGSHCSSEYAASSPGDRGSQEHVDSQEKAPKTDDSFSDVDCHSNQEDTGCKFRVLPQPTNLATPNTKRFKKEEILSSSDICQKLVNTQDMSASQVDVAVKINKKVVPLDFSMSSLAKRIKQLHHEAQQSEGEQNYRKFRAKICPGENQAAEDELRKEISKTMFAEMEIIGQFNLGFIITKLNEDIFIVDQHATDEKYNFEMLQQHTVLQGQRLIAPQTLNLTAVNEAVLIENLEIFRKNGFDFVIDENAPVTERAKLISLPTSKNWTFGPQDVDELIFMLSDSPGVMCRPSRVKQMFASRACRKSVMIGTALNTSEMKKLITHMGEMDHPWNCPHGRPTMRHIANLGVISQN
B2: Mothers against decapentaplegic homolog 4 (Homo sapiens), Q13485 (parent)
chain: MDNMSITNTPTSNDACLSIVHSLMCHRQGGESETFAKRAIESLVKKLKEKKDELDSLITAITTNGAHPSKCVTIQRTLDGRLQVAGRKGFPHVIYARLWRWPDLHKNELKHVKYCQYAFDLKCDSVCVNPYHYERVVSPGIDLSGLTLQSNAPSSMMVKDEYVHDFEGQPSLSTEGHSIQTIQHPPSNRASTETYSTPALLAPSESNATSTANFPNIPVASTSQPASILGGSHSEGLLQIASGPQPGQQQNGFTGQPATYHHNSTTTWTGSRTAPYTPNLPHHQNGHLQHHPPMPPHPGHYWPVHNELAFQPPISNHPAPEYWCSIAYFEMDVQVGETFKVPSSCPIVTVDGYVDPSGGDRFCLGQLSNVHRTEAIERARLHIGKGVQLECKGEGDVWVRCLSDHAVFVQSYYLDREAGRAPGDAVHKIYPSAYIKVFDLRQCHRQMQQQAATAQAAAAAQAAAVAGNIPGPGSVGGIAPAISLSAAAGIGVDDLRRLCILRMSFVKGWGPDYPRQSIKETPCWIEIHLHRALQLLDEVLHTMPIADPQPLD
partner: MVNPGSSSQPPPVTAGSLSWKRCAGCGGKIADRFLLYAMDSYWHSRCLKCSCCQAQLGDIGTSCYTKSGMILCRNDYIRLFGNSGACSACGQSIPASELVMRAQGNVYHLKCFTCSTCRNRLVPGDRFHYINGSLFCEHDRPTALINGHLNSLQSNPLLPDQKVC
B3: Actin nucleation-promoting factor WAS (Homo sapiens), P42768 (parent)
chain: MSGGPMGGRPGGRGAPAVQQNIPSTLLQDHENQRLFEMLGRKCLTLATAVVQLYLALPPGAEHWTKEHCGAVCFVKDNPQKSYFIRLYGLQAGRLLWEQELYSQLVYSTPTPFFHTFAGDDCQAGLNFADEDEAQAFRALVQEKIQKRNQRQSGDRRQLPPPPTPANEERRGGLPPLPLHPGGDQGGPPVGPLSLGLATVDIQNPDITSSRYRGLPAPGPSPADKKRSGKKKISKADIGAPSGFKHVSHVGWDPQNGFDVNNLDPDLRSLFSRAGISEAQLTDAETSKLIYDFIEDQGGLEAVRQEMRRQEPLPPPPPPSRGGNQLPRPPIVGGNKGRSGPLPPVPLGIAPPPPTPRGPPPPGRGGPPPPPPPATGRSGPLPPPPPGAGGPPMPPPPPPPPPPPSSGNGPAPPPLPPALVPAGGLAPGGGRGALLDQIRQGIQLNKTPGAPESSALQPPPQSSEGLVGALMHVMQKRSRAIHSSDEGEDQAGDEDEDDEWDD
B4: Mothers against decapentaplegic homolog 4 (Homo sapiens), Q13485 (parent)
chain: B2 chain
partner: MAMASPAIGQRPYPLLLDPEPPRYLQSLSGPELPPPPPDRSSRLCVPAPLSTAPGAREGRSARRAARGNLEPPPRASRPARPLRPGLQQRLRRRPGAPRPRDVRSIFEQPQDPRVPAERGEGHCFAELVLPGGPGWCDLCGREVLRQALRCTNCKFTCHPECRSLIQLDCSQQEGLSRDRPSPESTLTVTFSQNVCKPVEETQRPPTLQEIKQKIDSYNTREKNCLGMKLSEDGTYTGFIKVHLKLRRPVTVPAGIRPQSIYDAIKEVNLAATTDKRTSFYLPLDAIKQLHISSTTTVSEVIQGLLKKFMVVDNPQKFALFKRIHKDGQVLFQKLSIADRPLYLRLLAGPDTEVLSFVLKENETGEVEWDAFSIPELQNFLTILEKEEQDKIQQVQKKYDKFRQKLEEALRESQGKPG
B5: Interleukin-1 receptor-associated kinase 4 (Homo sapiens), Q9NWZ3 (parent)
chain: MNKPITPSTYVRCLNVGLIRKLSDFIDPQEGWKKLAVAIKKPSGDDRYNQFHIRRFEALLQTGKSPTSELLFDWGTTNCTVGDLVDLLIQNEFFAPASLLLPDAVPKTANTLPSKEAITVQQKQMPFCDKDRTLMTPVQNLEQSYMPPDSSSPENKSLEVSDTRFHSFSFYELKNVTNNFDERPISVGGNKMGEGGFGVVYKGYVNNTTVAVKKLAAMVDITTEELKQQFDQEIKVMAKCQHENLVELLGFSSDGDDLCLVYVYMPNGSLLDRLSCLDGTPPLSWHMRCKIAQGAANGINFLHENHHIHRDIKSANILLDEAFTAKISDFGLARASEKFAQTVMTSRIVGTTAYMAPEALRGEITPKSDIYSFGVVLLEIITGLPAVDEHREPQLLLDIKEEIEDEEKTIEDYIDKKMNDADSTSVEAMYSVASQCLHEKKNKRPDIKKVQQLLQEMTAS
B6: DNA mismatch repair protein Mlh1 (Homo sapiens), P40692 (parent)
chain: B1 chain
B7: Mothers against decapentaplegic homolog 4 (Homo sapiens), Q13485 (parent)
chain: B2 chain

In the first assay the parent is B1. As to conditions: with pms2_human PMS2, P54278.
I107R: the “effect of a mutation on the interaction” value was “disrupting interaction strength”.

Variants of B2 are the subject of the next assay. Particulars: with lmo4_human LMO4, P61968.
On to N13S, for which the “effect of a mutation on the interaction” value is recorded as “with no effect”.
Regarding R361C, the “effect of a mutation on the interaction” value was “with no effect”.
Same read-out and setting: the result for Y353S reads “with no effect”.

In another assay the parent is B3. As to conditions: with cdc42_human CDC42, P60953.
Turning to MSGGPMGGRPGGRGAPAVQQNIPSTLLQDHENQRLFEMLGRKCLTLATAVVQLYLALPPGAEHWTKEHCGAVCFVKDNPQKSYFIRLYGLQAGRLLWEQELYSQLVYSTPTPFFHTFAGDDCQAGLNFADKDEAQAFRALVQEKIQKRNQRQSGDRRQLPPPPTPANEERRGGLPPLPLHPGGDQGGPPVGPLSLGLATVDIQNPDITSSRYRGLPAPGPSPADKKRSGKKKISKADIGAPSGFKHVSHVGWDPQNGFDVNNLDPDLRSLFSRAGISEAQLTDAETSKLIYDFIEDQGGLEAVRQEMRRQEPLPPPPPPSRGGNQLPRPPIVGGNKGRSGPLPPVPLGIAPPPPTPRGPPPPGRGGPPPPPPPATGRSGPLPPPPPGAGGPPMPPPPPPPPPPPSSGNGPAPPPLPPALVPAGGLAPGGGRGALLDQIRQGIQLNKTPGAPESSALQPPPQSSEGLVGALMHVMQKRSRAIHSSDEGEDQAGDEDEDDEWDD [E131K], the “effect of a mutation on the interaction” value is reported as “with no effect”.
For MSGGPMGGRPGGRGAPAVQQNIPSTLLQDHENQRLFEMLGRKCLTLATAVVQLYLALPPGAEHWTKEHCGAVCFVKDNPQKSYFIRLYGLQAGRLLWEQELYSQLVYSTPTPFFHTFAGDDCQAGLNFADEDEAQAFRALVQEKIQKRNQRQSGDRRQLPPPPTPANEERRGGLPPLPLHPGGDQGGPPVGPLSLGLATVDIQNPDITSSRYRGLPAPGPSPADKKRSGKKKISKADIGAPSGFKHVSHVGWDPQNGFDVNNLDPDLRSLFSRAGISEAQLTDAETSKLIYDFTEDQGGLEAVRQEMRRQEPLPPPPPPSRGGNQLPRPPIVGGNKGRSGPLPPVPLGIAPPPPTPRGPPPPGRGGPPPPPPPATGRSGPLPPPPPGAGGPPMPPPPPPPPPPPSSGNGPAPPPLPPALVPAGGLAPGGGRGALLDQIRQGIQLNKTPGAPESSALQPPPQSSEGLVGALMHVMQKRSRAIHSSDEGEDQAGDEDEDDEWDD [I294T], the “effect of a mutation on the interaction” value was “disrupting interaction strength”.

The variants in another assay derive from B4. As to conditions: with rasf5_human RASSF5, Q8WWW0.
With Y353S, the “effect of a mutation on the interaction” value is reported as “with no effect”.
As to R361C, the “effect of a mutation on the interaction” value was “with no effect”.
On the same count and under the same terms, next, N13S: “with no effect”.

Variants of B5 are the subject of the next assay. As to conditions: with myd88_human MYD88, Q99836.
In the case of MNKPITPSTYVCCLNVGLIRKLSDFIDPQEGWKKLAVAIKKPSGDDRYNQFHIRRFEALLQTGKSPTSELLFDWGTTNCTVGDLVDLLIQNEFFAPASLLLPDAVPKTANTLPSKEAITVQQKQMPFCDKDRTLMTPVQNLEQSYMPPDSSSPENKSLEVSDTRFHSFSFYELKNVTNNFDERPISVGGNKMGEGGFGVVYKGYVNNTTVAVKKLAAMVDITTEELKQQFDQEIKVMAKCQHENLVELLGFSSDGDDLCLVYVYMPNGSLLDRLSCLDGTPPLSWHMRCKIAQGAANGINFLHENHHIHRDIKSANILLDEAFTAKISDFGLARASEKFAQTVMTSRIVGTTAYMAPEALRGEITPKSDIYSFGVVLLEIITGLPAVDEHREPQLLLDIKEEIEDEEKTIEDYIDKKMNDADSTSVEAMYSVASQCLHEKKNKRPDIKKVQQLLQEMTAS [R12C], the “effect of a mutation on the interaction” value is “disrupting interaction strength”.
Still for that read-out and setting: next, MNKPITPSTYVRCLNVGLIRKLSDFIDPQEGWKKLAVAIKKPSGDDRYNQFHIRRFEALLQTGKSPTSELLFDWGTTNCTVGDLVDLLIQNEFFAPASLLLPDAVPKTANTLPSKEAITVQQKQMPFCDKDRTLMTPVQNLEQSYMPPDSSSPENKSLEVSDTRFHSFSFYELKNVTNNFDERPISVGGNKMGEGGFGVVYKGYVNNTTVAVKKLAAMVDITTEELKQQFDQEIKVMAKCQHENLVELLGFSSDGDDLCLVYVYMPNGSLLDRLSCLDGTPPLSWHMRCKIAQGAANDINFLHENHHIHRDIKSANILLDEAFTAKISDFGLARASEKFAQTVMTSRIVGTTAYMAPEALRGEITPKSDIYSFGVVLLEIITGLPAVDEHREPQLLLDIKEEIEDEEKTIEDYIDKKMNDADSTSVEAMYSVASQCLHEKKNKRPDIKKVQQLLQEMTAS [G298D]: “disrupting interaction strength”; MNKPITPSTYVRCLNVGLIRKLSDFIDPQEGWKKLAVAIKKPSGDDRYNQFHIRRFEALLQTGKSPTSELLFDWGTTNCTVGDLVDLLIQNEFFAPASLLLPDAVPKTANTLPSKEAITVQQKQMPFCDKDRTLMTPVQNLEQSYMPPDSSSPENKSLEVSDTRFHSFSFYELKNVTNNFDERPISVGGNKMGEGGFGVVYKGYVNNTTVAVKKLAAMVDITTEELKQQFDQEIKVMAKCQHENLVELLGFSSDGDDLCLVYVYMPNGSLLDRLSCLDGTPPLSWHMRCKIAQGAANGINFLHENHHIHRDIKSANILLDEAFTAKISDFGLARASEKFAQTVMTSRIVGTTAYMAPEALRGEITPKSDIYSFGVVLLEIITGLPAVDEHREPQLLLDIKEEIEDEEKTIEDYIDKKMNDADSTSVETMYSVASQCLHEKKNKRPDIKKVQQLLQEMTAS [A428T]: “with no effect”.

Variants of B6 are the subject of another assay. As to conditions: with hsp7c_human HSPA8, P11142.
On to I107R, for which the “effect of a mutation on the interaction” value is recorded as “increasing interaction strength”.

Another assay covers variants of B7. As to conditions: with smad3_human SMAD3, P84022.
On to R361C, for which the “effect of a mutation on the interaction” value is recorded as “disrupting interaction strength”.
Take Y353S: the “effect of a mutation on the interaction” value is “disrupting interaction strength”.

In another assay the parent is B7. As to conditions: with smad9_human SMAD9, O15198.
As to R361C, the “effect of a mutation on the interaction” value is reported as “disrupting interaction strength”.
Consider Y353S, for which the “effect of a mutation on the interaction” value is given as “disrupting interaction strength”.
